Target: IQ motif containing GTPase activating protein 1 (IQGAP1), endogenous in differentiated HL-60 cells (human (endogenous in HL-60)) (UniProt P46940)
Test: co-IP; rabbit anti-IQGAP1 antibody and Protein A/G agarose; lysates of differentiated HL-60 cells expressing CXCR2, vehicle or 100 ng/ml CXCL8 for 1 or 5 min; western blot for Cdc42, densitometry

Chain of IQ motif containing GTPase activating protein 1 (IQGAP1), endogenous in differentiated HL-60 cells (human (endogenous in HL-60)) (P46940 whole entry): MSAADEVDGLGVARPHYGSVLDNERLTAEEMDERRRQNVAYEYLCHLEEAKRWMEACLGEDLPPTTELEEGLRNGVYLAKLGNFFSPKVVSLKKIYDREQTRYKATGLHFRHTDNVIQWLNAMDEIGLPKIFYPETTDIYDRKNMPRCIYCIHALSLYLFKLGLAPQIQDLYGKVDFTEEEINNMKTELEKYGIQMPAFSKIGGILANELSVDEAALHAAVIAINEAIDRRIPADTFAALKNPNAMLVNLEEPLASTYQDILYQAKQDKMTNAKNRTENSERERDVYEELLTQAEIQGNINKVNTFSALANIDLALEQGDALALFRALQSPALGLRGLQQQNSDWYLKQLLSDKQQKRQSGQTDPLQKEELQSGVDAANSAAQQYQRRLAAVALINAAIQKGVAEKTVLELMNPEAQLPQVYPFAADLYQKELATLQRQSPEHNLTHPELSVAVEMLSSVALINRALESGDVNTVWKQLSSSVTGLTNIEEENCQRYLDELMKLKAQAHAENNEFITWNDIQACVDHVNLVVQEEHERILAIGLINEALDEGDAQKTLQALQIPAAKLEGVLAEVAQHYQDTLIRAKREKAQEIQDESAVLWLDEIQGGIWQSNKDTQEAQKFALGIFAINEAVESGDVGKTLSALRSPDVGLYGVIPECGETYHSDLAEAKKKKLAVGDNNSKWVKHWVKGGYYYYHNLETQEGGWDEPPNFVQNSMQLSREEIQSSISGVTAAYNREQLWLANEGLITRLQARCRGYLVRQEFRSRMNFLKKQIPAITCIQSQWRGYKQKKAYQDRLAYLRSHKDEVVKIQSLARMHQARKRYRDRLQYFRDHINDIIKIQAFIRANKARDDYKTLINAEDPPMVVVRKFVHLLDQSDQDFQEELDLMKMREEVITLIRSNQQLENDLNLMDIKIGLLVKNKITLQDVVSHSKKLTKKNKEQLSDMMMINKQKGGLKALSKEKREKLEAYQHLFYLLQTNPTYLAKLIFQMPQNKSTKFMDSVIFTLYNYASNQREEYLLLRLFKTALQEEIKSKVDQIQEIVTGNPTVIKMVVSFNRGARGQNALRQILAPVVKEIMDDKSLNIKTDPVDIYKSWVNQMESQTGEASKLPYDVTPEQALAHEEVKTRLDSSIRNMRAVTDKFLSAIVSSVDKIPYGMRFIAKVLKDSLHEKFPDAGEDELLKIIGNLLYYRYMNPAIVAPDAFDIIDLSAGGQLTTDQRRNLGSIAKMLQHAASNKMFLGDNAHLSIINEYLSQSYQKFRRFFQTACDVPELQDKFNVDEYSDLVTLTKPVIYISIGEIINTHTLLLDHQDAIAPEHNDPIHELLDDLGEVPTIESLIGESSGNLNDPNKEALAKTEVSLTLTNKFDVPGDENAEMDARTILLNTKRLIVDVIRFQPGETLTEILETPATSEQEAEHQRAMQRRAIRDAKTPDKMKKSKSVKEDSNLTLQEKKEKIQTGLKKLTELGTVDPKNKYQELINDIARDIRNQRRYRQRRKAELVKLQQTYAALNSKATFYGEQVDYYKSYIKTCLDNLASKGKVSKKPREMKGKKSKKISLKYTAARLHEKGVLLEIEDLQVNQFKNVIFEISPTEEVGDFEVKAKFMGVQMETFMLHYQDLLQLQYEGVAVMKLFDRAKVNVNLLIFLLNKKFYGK
Chain of Cdc42, endogenous in differentiated HL-60 cells expressing CXCR2, P60953 1-191 (natural protein; other documents disagree on this pair) (P60953 whole entry): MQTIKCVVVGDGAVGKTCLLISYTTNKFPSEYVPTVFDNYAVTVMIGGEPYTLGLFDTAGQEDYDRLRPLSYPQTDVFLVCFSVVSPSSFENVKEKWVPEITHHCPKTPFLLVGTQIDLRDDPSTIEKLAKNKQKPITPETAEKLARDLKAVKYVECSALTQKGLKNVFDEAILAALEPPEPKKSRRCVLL

Cdc42, endogenous in differentiated HL-60 cells expressing CXCR2, P60953 1-191 (natural protein; other documents disagree on this pair)
fold increase in co-immunoprecipitated Cdc42 after 1 min of CXCL8 over untreated cells: 1.36 fold

Reference: PMC3158102
